US20240100174A1, “PROTEIN-PEG INTERACTIONS THAT REDIRECT THE THERMAL UNFOLDING PATHWAY OF PEGYLATED HUMAN GALECTIN-3C” (UNIVERSITY OF FLORIDA RESEARCH FOUNDATION, INCORPORATED, priority 2022, published 2024)

Assays:
[1] = Equilibrium binding of LacNac, intrinsic tryptophan fluorescence; settings: ligand LacNac; average ± standard deviation of 3 replicated experiments; PBS; read-out: Kd (equilibrium binding constant)
Procedure: (§1) Equilibrium binding data were recorded using a protocol adapted from a previous procedure from Restuccia, et al (38). Intrinsic tryptophan fluorescence was monitored using a Cary Eclipse™ Fluorescence Spectrophotometer (Agilent) operating with Cary Eclipse™ WinFLR software version 1.2 in ‘Scan Mode’. The instrument method parameters were as follows: excitation wavelength was 280 nm, the acquisition range was from 290 nm to 440 nm and the photomultiplier tube sensitivity was set to ‘medium’. Samples were prepared at final concentrations of 1 μM for Gal3C[T243C] or 5 μM Gal3C[T243C]-PEG in 800 ∥L, in PBS for each titration. Samples were pipetted into 0.7×0.7 cm quartz cuvettes with a micro stir bar. Each new experiment was first zeroed against PBS to remove the small background signal from the buffer. […]
The binding affinity and specificity of Gal3C[T243C]-PEG was compared with Gal3C[T243C] and Gal3C (see FIG. 1C, FIG. 9 and FIG. 10) via an inherent tryptophan fluorescence assay optimized to ensure equilibrium binding conditions. Binding of lactose or LacNac quenches the fluorescence of W181, located adjacent to the bound sugar in the crystal structure of Gal3C, thus permitting direct measurement of ligand Kd values. […]

[2] = Equilibrium binding of lactose, intrinsic tryptophan fluorescence; settings: ligand lactose; average ± standard deviation of 3 replicated experiments; PBS; read-out: Kd (equilibrium binding constant)
Procedure: as §1
The binding affinity and specificity of Gal3C[T243C]-PEG was compared with Gal3C[T243C] and Gal3C (see FIG. 1C, FIG. 9 and FIG. 10) via an inherent tryptophan fluorescence assay optimized to ensure equilibrium binding conditions. Binding of lactose or LacNac quenches the fluorescence of W181, located adjacent to the bound sugar in the crystal structure of Gal3C, thus permitting direct measurement of ligand Kd values.

Kd [1]: 230 ± 56.5 µM
Kd [2]: 413 ± 102 µM
B1: Gal3C[T243C]: Gal3C variant with a single extrinsic cysteine at position 243; SEQ ID NO: 11 (protein)
chain: MAGPLIVPYNLPLPGGVVPRMLITILGTVKPNANRIALDFQRGNDVAFHFNPRFNENNRRVIVCNTKLDNNWGREERQSVFPFESGKPFKIQVLVEPDHFKVAVNDAHLLQYNHRVKKLNEISKLGISGDIDLTSASYCMILEHHHHHH
